Where “and” joins values, the source holds several entries; their conditions need not be identical. Identical values can stand only once.

The target of experiment [1] is T1, human IL-1β (human, UniProt P01584 117-269). In words: cell-based or functional assay.
In experiment [2] the target is T2, human IL-1α (human, UniProt P01583 113-271).
T2 sequence (looked up): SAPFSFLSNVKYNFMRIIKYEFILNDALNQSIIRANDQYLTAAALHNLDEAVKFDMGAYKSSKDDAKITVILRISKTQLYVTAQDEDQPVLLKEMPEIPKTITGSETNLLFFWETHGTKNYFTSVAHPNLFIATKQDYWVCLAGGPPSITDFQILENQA
In words: cell-based or functional assay.

Experiment [3] has as its target T1, human IL-1β. In words: cell-based or functional assay. This is another data set of the same source.
Experiment [4] addresses T2, human IL-1α. In words: cell-based or functional assay. This is another data set of the same source.
Experiment [5] concerns the target T3, human IL-1α (human, UniProt P01583 113-271).
T3 sequence (looked up): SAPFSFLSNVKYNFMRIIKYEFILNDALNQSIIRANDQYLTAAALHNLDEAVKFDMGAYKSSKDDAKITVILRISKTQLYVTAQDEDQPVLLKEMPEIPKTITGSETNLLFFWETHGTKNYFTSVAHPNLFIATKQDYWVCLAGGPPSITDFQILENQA
In words: cell-based or functional assay. This is another data set of the same source.

Experiment [6] has as its target T3, human IL-1α. In words: Table 62 KD; BIAcore presumed. (In SPR one partner is held on a chip, and binding of the other changes the refractive index at the surface.)
Experiment [7] concerns the target T3, human IL-1α. In words: Table 62 IC50; RBA presumed.

B1: ABT2-108-521/ABT1-122 hu IgG1/K wt (bispecific antibody, V domains shown)
VH: EVQLLESGGGLVQPGGSLRLSCAASGFTFAEYTMMWVRQAPGKGLEWVSRIGQDGKNTYYADSVKGRFTISRDNSKNTLYLQMNSLRAEDTAVYYCAKYTGRILGHHLFDYWGQGTLVTVSS
VL: DIQMTQSPSSLSASVGDRVTITCRASQPIWTELNWYQQKPGKAPKLLIYGSSSLQSGVPRFSGSGSGTDFTLTISSLQPEDFATYYCQQFAYFPATFGQGTKVEIKR
Regarding B1, the “IL-1β IC50” value in experiment [1] was 0.2 nM and 0.4 nM. In addition, the “IL-1α IC50” value in experiment [2] was 1000 nM. Moreover, in experiment [3], the “MRC5 IL-1β” value was 1 nM. Besides, the “MRC5 IL-1α” value in experiment [4] was 1000 nM.

B2: ABT2-65-166/ABT1-95-A5 hu IgG1mut 234, 235/K (bispecific antibody, V domains shown)
VH: EVQLLESGGGLVQPGGSLRLSCAASGFTFEDYQMGWVRQAPGKGLEWVSSISAMGGRTYYADSVKGRFTISRDNSKNTLYLQMNSLRAEDTAVYYCAQNLVRLGRSRWMFDYWGQGTLVTVSS
VL: DIQMTQSPSSLSASVGDRVTITCRASRTPVRNLRWYQQKPGKAPKLLIYSRSFLEPGVPSRFSGSGSGTDFTLTISSLQPEDFATYHCLQGYRWPPTFGQGTKVEIKR
For the molecule B2, the “IL-1β IC50” value in experiment [1] amounted to 0.145 nM. For the same molecule, the “IL-1α IC50” value in experiment [2] stood at 0.015 nM. The “MRC5 IL-1β” value in experiment [3] was 0.197 nM. For the same molecule, the “MRC5 IL-1α” value in experiment [4] came to 0.014 nM.

B3: ABT1-95-3 (other)
VL: DIQMTQSPSSLSASVGDRVTITCRASQPIHGNLRWYQQKPGKAPKLLIYSSSYLQSGVPSRFSGSGSGTDFTLTISSLQPEDFATYHCQQGYRWPVTFGQGTKVEIKR
notes: VK dAb
In turn, B3 came in with an ND50 in experiment [5] of 80 nM. In addition, the affinity in experiment [6], expressed as Kd, was 7 nM. In addition, in experiment [7], the IC50 worked out at 4 nM.

B4: ABT1-95-8 (other)
VL: DIQMTQSPSSLSASVGDRVTITCRASQPIQGNLRWYQQKPGKAPKLLIYSSSYLERGVPSRFSGSGSGTDFTLTISSLQPEDFATYHCQQGYRWPVTFGQGTKVEIKR
notes: VK dAb
Turning to B4, the ND50 in experiment [5] worked out at 1 nM. Moreover, the Kd in experiment [6] was 2.1 nM. The same molecule showed an IC50 in experiment [7] of 0.8 nM.

B5: ABT1-95-6 (other)
VL: DIQMTQSPSSLSASVGDRVTITCRASQPIQGNLRWYQQKPGKAPKLLIYSSSYLESGVPSRFSGSGSGTDFTLTISSLQPEDFATYHCQQGYRWPVTFGQGTKVEIKR
notes: VK dAb
B5 returned an ND50 in experiment [5] of 1 nM. Further, in experiment [6], binding was characterised by a dissociation constant (Kd) of 2.1 nM. In addition, in experiment [7], inhibition was half-maximal at 0.8 nM (IC50).

B6: ABT1-95-9 (other)
VL: DIQMTQSPSSLSASVGDRVTITCRASQPIQGNLRWYQQKPGKAPKLLIYSSSYLERGVPSRFSGSGSGTDFTLTISSLHPEDFATYHCQQGYRWPVTFGQGTKVEIKR
notes: VK dAb
For B6, the affinity in experiment [6], expressed as Kd, was 1 nM. Besides, the IC50 in experiment [7] was found to be 0.8 nM.

B7: ABT1-95-12 (other)
VL: DIQMTQSPSSLSASVGDRVTITCRASQPIHGNLRWYQQKPGKAPKLLIYSSSYLESWVPSRFSGSGSGTDFTLTISSLQPEDFATYHCQQGYRWPVTFGQGTKVEIKR
notes: VK dAb
For the molecule B7, in experiment [6], the Kd came to 0.9 nM. The IC50 in experiment [7] worked out at 0.8 nM.

B8: ABT1-95-10 (other)
VL: DIQMTQSPSSLSASVGDRVTITCRASQPIQGNLRWYQQKPGKAPKLLIYSSSYLERGVPSRFSGSGSGTDFTLTISSLHPEDLATYHCQQGYRWPVTFGQGTKVEIKR
notes: VK dAb
On to B8, for which the Kd in experiment [6] worked out at 0.9 nM. In experiment [7], the IC50 was 0.8 nM.

B9: ABT1-95-4 (other)
VL: DIQMTQSPSSLSASVGDRVTITCRASQPIVRNLRWYQQKPGKAPKLLIYSSSYLQSGVPSRFSGSGSGTDFTLTISSLQPEDFATYHCQQGYRWPVTFGQGTKVEIKR
notes: VK dAb
In experiment [5], B9 had an ND50 of 2 nM. This molecule yielded a Kd in experiment [6] of 1.5 nM. The same molecule came in with an IC50 in experiment [7] of 0.7 nM.

B10: ABT1-95-15 (other)
VL: DIQMTQSPSSLSASVGDRVTITCRASQPIVRNLRWYQQKPGKAPKLLIYSSSYLEPGVPSRFSGSGSGTDFTLTISSLQPEDFATYHCQQGYRWPVTFGQGTKVEIKR
notes: VK dAb
B10: binding in experiment [6] was characterised by a dissociation constant (Kd) of 0.4 nM.

A word on the Kd: it is the equilibrium constant for the complex coming apart. Low readings indicate tighter binding, high ones weaker binding. Usually IC50 stands for the concentration at which inhibition is half-maximal. Low readings indicate greater potency, high ones weaker potency.

(Values after patent publication US20090291081A1 (AbbVie / Abbott, published 2009).)
